This note sets out measurements from patent US20170165337A1 (IMMATICS BIOTECHNOLOGIES, published 2017).

In this test the target is T1, HLA-A*02:01 (human).
T1 construct: MHC class I monomer of the UV-ligand exchange assay; also called peptide-receptive MHC molecules; MHC class I
In words: UV peptide-exchange ELISA. A digest of the protocol: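 Peptide-MHC complexes formed by UV-mediated exchange of a UV-cleavable peptide for the test peptide; exchange yield quantified by β2m ELISA. Diluted 100-fold, captured on streptavidin-coated plates 1 h at 37 °C, detected with HRP anti-β2m and TMB at 450 nm against refolded HLA-A*02:01 monomer standards (15-500 ng/ml).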
On the technique in general: ELISA stands for enzyme-linked immunosorbent assay.

As for ILTELGGFEV, the peptide exchange yield lay in the range of 50 to 75%.

HLIDTNKIQL returned a peptide exchange yield of 50 to 75%.

For the molecule VLMWEIYSL, the peptide exchange yield lay in the range of 50 to 75%.

Take ALSEKLARL: the peptide exchange yield was 50 to 75%.

Molecule LISPLLLPV had a peptide exchange yield of 50 to 75%.

As for YMAVTTQEV, the peptide exchange yield was no less than 75%.

Molecule SLITPLQAV displayed a peptide exchange yield of 50 to 75%.

In turn, FLDMTNWNL showed a peptide exchange yield of no less than 75%.

Regarding YLLREWVNL, the peptide exchange yield was no less than 75%.

ALAKPPVVSV yielded a peptide exchange yield of 50 to 75%.

The molecule VVDGTCVAV yielded a peptide exchange yield of 50 to 75%.

In turn, FLEEGGVVTV came in with a peptide exchange yield of 50 to 75%.

VLAFENPQV displayed a peptide exchange yield of 50 to 75%.

Consider YLAELVTPIL, for which the peptide exchange yield lay in the range of 50 to 75%.

The molecule ATPMPTPSV gave a peptide exchange yield of 20 to 50%.

On to SIFASPESV, for which the peptide exchange yield lay in the range of 50 to 75%.

TLLADQGEIRV came in with a peptide exchange yield of 20 to 50%.

RLLDLENSLLGL: the peptide exchange yield fell in the range of 50 to 75%.

As to VLSVITEEL, the peptide exchange yield was 50 to 75%.

In the case of FLDALLTDV, the peptide exchange yield lay within 50 to 75%.

Take NLWSLVAKV: the peptide exchange yield lay within 50 to 75%.

The molecule SLADDSVLERL yielded a peptide exchange yield of 50 to 75%.

FILPSSLYL showed a peptide exchange yield of 50 to 75%.

In the case of VIAELPPKVSV, the peptide exchange yield was in the range of 50 to 75%.

Molecule YLGPVSPSL gave a peptide exchange yield of 50 to 75%.

FIMEGGAMV showed a peptide exchange yield of 50 to 75%.

With YLLEENKIKL, the peptide exchange yield lay within 50 to 75%.

YLLEEKIASL had a peptide exchange yield of 50 to 75%.

For the molecule FIMDDPAGNSYL, the peptide exchange yield lay in the range of 50 to 75%.

In the case of VLWELAHLPTL, the peptide exchange yield lay in the range of 50 to 75%.

In turn, YLPYIFPNI yielded a peptide exchange yield of 50 to 75%.

In the case of VLMDGSVKL, the peptide exchange yield is no less than 75%.

Consider FIWPMLIHI, for which the peptide exchange yield fell in the range of 50 to 75%.

As for YLLPLLQRL, the peptide exchange yield was no less than 75%.

In turn, FMQDPMEVFV displayed a peptide exchange yield of 50 to 75%.

In the case of ALATHILSL, the peptide exchange yield is 50 to 75%.

With YMYEKESEL, the peptide exchange yield was 20 to 50%.

As for YMIGSEVGNYL, the peptide exchange yield is no less than 75%.

Regarding ITTEVVNELYV, the peptide exchange yield was in the range of 50 to 75%.

FLIQEIKTL yielded a peptide exchange yield of 50 to 75%.

Molecule VLVQVSPSL showed a peptide exchange yield of 50 to 75%.

The molecule FLTDYLNDL displayed a peptide exchange yield of 50 to 75%.

For VLYNQRVEEI, the peptide exchange yield lay within 50 to 75%.

On to FILTHVDQL, for which the peptide exchange yield is no less than 75%.

Molecule YLIEPDVELQRI gave a peptide exchange yield of 50 to 75%.

LLAELPASVHA showed a peptide exchange yield of 50 to 75%.

Take SLFGPLPGPGPALV: the peptide exchange yield was in the range of 50 to 75%.

With YLDRKLLTL, the peptide exchange yield was 50 to 75%.

With ALVFELHYV, the peptide exchange yield lay in the range of 50 to 75%.

As for KLLEEICNL, the peptide exchange yield is no less than 75%.

ILQEFESKL registered a peptide exchange yield of 50 to 75%.

As to FLLGPEALSFA, the peptide exchange yield is no less than 75%.

Molecule YLYQEQYFI yielded a peptide exchange yield of 50 to 75%.

As to ALEDRVWEL, the peptide exchange yield was in the range of 50 to 75%.

VLWFKPVEL came in with a peptide exchange yield of 50 to 75%.

KMDWIFHTI yielded a peptide exchange yield of 50 to 75%.

In turn, YILGKFFAL displayed a peptide exchange yield of 50 to 75%.

Turning to FLHDHQAEL, the peptide exchange yield was 20 to 50%.

For FLLSINDFL, the peptide exchange yield is 50 to 75%.

On to GLWGTVVNI, for which the peptide exchange yield was in the range of 50 to 75%.

Turning to VMIQHVENL, the peptide exchange yield lay in the range of 50 to 75%.

Molecule FLDPSLDPLL gave a peptide exchange yield of 50 to 75%.

With FLDEDDMSL, the peptide exchange yield lay within 20 to 50%.

FIMEGGAMVL: the peptide exchange yield is no less than 75%.

VTLEFPQLIRV: the peptide exchange yield fell in the range of 50 to 75%.

Molecule YTIPLAIKL showed a peptide exchange yield of 50 to 75%.
